According to article PMC2408619 (2008):

T1: Biotinylated Prn-E (pertactin residues 38-640 with N-terminal biotinylation sequence) (B. bronchiseptica, UniProt Q03035 38-640, biotin (in vivo biotinylation of the N-terminal biotinylation sequence))
T1 chain: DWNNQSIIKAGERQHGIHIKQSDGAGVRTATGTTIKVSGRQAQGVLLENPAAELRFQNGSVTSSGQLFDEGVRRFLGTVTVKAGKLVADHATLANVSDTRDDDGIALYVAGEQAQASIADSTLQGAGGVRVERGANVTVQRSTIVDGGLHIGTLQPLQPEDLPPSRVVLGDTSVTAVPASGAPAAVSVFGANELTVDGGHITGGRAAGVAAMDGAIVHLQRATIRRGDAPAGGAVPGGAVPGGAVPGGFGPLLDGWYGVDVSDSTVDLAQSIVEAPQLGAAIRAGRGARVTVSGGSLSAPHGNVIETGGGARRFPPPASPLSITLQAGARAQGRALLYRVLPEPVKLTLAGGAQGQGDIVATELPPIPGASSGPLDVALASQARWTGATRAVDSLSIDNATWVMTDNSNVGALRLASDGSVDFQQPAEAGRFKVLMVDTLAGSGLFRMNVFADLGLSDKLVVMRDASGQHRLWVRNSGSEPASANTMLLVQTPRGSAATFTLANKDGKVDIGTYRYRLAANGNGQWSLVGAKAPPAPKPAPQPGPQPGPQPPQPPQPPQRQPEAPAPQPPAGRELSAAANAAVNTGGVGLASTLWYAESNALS

B1: BPP-1 phage displaying Mtd-P1 (other)
chain: MSTAVQFRGGTTAQHATFTGAAREITVDTDKNTVVVHDGATAGGFPLARHDLVKTAFIKADKSAVAFTRTGNATASIKAGTIVEVNGKLVQFTADTAITMPALTAGTDYAIYVCDDGTVRADSNFSAPTGYTSTTARKVGGFHYAPGSNAAAQAGGNTTAQINEYSLWDIKFRPAALDPRGMTLVAGAFWADIYLLGVNHLTDGTSKYNVTIADGSASPKKSTKFGGDGSAAYSDGAWYNFAEVMTHHGKRLPNYNEFQALAFGTTEATSSGGTDVPTTGVNGTGATSAWNIFTSKWGVVQASGCLWTWGNEFGGVNGASEYTANTGGRGSVYAQPAAALFGGAWNGTSLSGSRAALWYSGPSFSFAFFGARGVCDHLILE
B2: Pertactin on the surface of Bvg+ B. bronchiseptica RB53 (receptor)
chain: DWNNQSIIKAGERQHGIHIKQSDGAGVRTATGTTIKVSGRQAQGVLLENPAAELRFQNGSVTSSGQLFDEGVRRFLGTVTVKAGKLVADHATLANVSDTRDDDGIALYVAGEQAQASIADSTLQGAGGVRVERGANVTVQRSTIVDGGLHIGTLQPLQPEDLPPSRVVLGDTSVTAVPASGAPAAVSVFGANELTVDGGHITGGRAAGVAAMDGAIVHLQRATIRRGDAPAGGAVPGGAVPGGAVPGGFGPLLDGWYGVDVSDSTVDLAQSIVEAPQLGAAIRAGRGARVTVSGGSLSAPHGNVIETGGGARRFPPPASPLSITLQAGARAQGRALLYRVLPEPVKLTLAGGAQGQGDIVATELPPIPGASSGPLDVALASQARWTGATRAVDSLSIDNATWVMTDNSNVGALRLASDGSVDFQQPAEAGRFKVLMVDTLAGSGLFRMNVFADLGLSDKLVVMRDASGQHRLWVRNSGSEPASANTMLLVQTPRGSAATFTLANKDGKVDIGTYRYRLAANGNGQWSLVGAKAPPAPKPAPQPGPQPGPQPPQPPQPPQRQPEAPAPQPPAGRELSAAANAAVNTGGVGLASTLWYAESNALSKRLGELRLNPDAGGAWGRGFAQRQQLDNRAGRRFDQKVAGFELGADHAVAVAGGRWHLGGLAGYTRGDRGFTGDGGGHTDSVHVGGYATYIANSGFYLDATLRASRLENDFKVAGSDGYAVKGKYRTHGVGASLEAGRRFAHADGWFLEPQAELAVFRVGGGAYRAANGLRVRDEGGSSVLGRLGLEVGKRIELAGGRQVQPYIKASVLQEFDGAGTVRTNGIAHRTELRGTRAELGLGMAAALGRGHSLYASYEYSKGPKLAMPWTFHAGYRYSW

Columns and labels:
[1] = target: T1, Biotinylated Prn-E (pertactin residues …); experiment: SPR
[2] = target: B2
[3] = target: BPP-6 phage displaying Mtd-P6 (Bordetella bacteriophage BPP-6, UniProt Q775D6)

Row | Binder | koff [1] | Kd [2] | Kd [3]
1 | B1 | 0.000636 s⁻¹ | 3.7 pM | –
2 | B2 | – | – | 0.059 pM
